In US20070110756A1, “Method for modulating P53 activity via methylation” (priority 2005, published 2007):

T1: Set9 construct composed of residues 52-366 (UniProt Q8WTS6 52-366)
T1 sequence (looked up): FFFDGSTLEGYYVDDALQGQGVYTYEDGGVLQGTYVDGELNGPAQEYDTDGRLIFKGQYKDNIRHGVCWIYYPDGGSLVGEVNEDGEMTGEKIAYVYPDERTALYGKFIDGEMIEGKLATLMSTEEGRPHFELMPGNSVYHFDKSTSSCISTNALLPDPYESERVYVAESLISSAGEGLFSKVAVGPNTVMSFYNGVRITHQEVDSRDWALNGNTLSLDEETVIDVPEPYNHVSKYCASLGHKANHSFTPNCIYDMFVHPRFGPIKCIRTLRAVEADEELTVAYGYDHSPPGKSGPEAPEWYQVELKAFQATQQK

B1: 5′-gat ccg cac ctg gac gat gac gga tta cct tcc tgt caG TAATCCGTCATCGTCCAGGTG Ctt ttt g-3′ (nucleic acid)
chain: GATCCGCACCTGGACGATGACGGATTACCTTCCTGTCAGTAATCCGTCATCGTCCAGGTGCTTTTTG
modifications: expressed or natural sequence
notes: stem-loop siRNA targeting SET9, expressed from lentiviral pLSL-GFP vector

Key:
[1] = test system: methylated Lys372-p53 in 293F cells; assay: immunoprecipitation with anti-p53-Lys372me and p53 western blot in 293F cells; assay type: cell-based; conditions: Adr-treated vs untreated
Experimental: The in vivo methylation of p53 at lysine 372 under conditions in which the intracellular concentration of Set9 was unaltered was also determined. 293F cells were treated with adriamycine (Adr), an agent that induces DNA damage resulting in the activation of a p53-responsive pathway. Cell extracts prepared from untreated and Adr-treated cells were then compared for total amounts of p53 protein using monoclonal p53 antibody. […] Both extracts were also subjected to immunoprecipitation with anti-p53-Lys372me antibodies followed by western blot analysis with p53-specific antibody.

[2] = test system: methylated p53 bound to the p21 promoter in U2OS cells; assay: ChIP assay of methylated p53 at the p21 promoter; assay type: cell-based; conditions: 0.5 μM of Adr, time course
Experimental: U2OS and USOS Set9 siRNA cells were treated with 0.5 μM of Adr and collected at the indicated time points for a CHIP assay performed using anti-p53-Lys372me antibody. The amounts of precipitated p21 promoter were determined by quantitative RT-PCR.
It was observed that p53 methylation likely precedes acetylation. Therefore, it was expected that p53 methylation must occur at very early times after DNA damage. […] At the indicated time periods, cells were harvested, and DNA-protein complexes were cross-linked and subjected to chromatin immunoprecipitation (ChIP) analysis, initially using anti-p53-Lys372me antibodies. To increase the specificity of ChIP, the anti-p53-Lys372me immunoprecipitates were eluted from the beads with 1% SDS, diluted with immunoprecipitation buffer and then subjected to a second round of immunoprecipitation using anti-p53 antibody.
ChIP assay on U2OS and U2OS cells expressing siRNA-Set9 was performed using established methods (Barlev, et al. (2001) supra). Briefly, cells were cross-linked with 1% formaldehyde, neutralized with 0.125 M glycine and harvested by scraping. The chromatin fraction was prepared by incubating the cells in lysis buffer (10 mM Tris pH 8.0, 200 mM NaCl, 10 mM EDTA, 0.5 mM EGTA, 1 mM PMSF). The insoluble fraction was sonicated and subjected to immunoprecipitation with anti-p53-Lys372me serum. […]

U2OS cells = assay: Annexin V apoptotic staining after DNA damage; assay type: cell-based
Text: This was directly tested by measuring the p53-dependent apoptotic response induced by DNA damage. […] The treatment of Set9-overexpressing cells with Adr further increased the Annexin V staining. […] Furthermore, Set9-mediated regulation of cell cycle and apoptosis was p53-dependent, because in the absence of p53, transfected Set9 was unable to induce p21 gene expression in H1299 (FIG. 4) or apoptosis in Saos-2 cells in response to DNA damage.

p53 in U2OS cells = assay: p53 Lys372 methylation and total p53 levels in U2OS cells; assay type: cell-based
[3] = test system: p21 gene expression in U2OS cells; assay: p21 gene expression by quantitative real-time PCR; assay type: cell-based, human; conditions: normalized to GAPDH
Experimental: U2OS cells were stably transfected with FLAG-Set9 wild-type, FLAG-Set9 mutant or siRNA against Set9. Non-transfected cells served as control. Cells were mock-treated, or treated with 0.3 μM of 5-fluoro-uracil (5-FU) or adriamycine (Adr) as indicated. p21 (FIG. 3A), BAX (FIG. 3B) and MDM2 (FIG. 3C) gene expression was analyzed by quantitative real-time PCR using primers specific for the coding region. Shown are the relative values normalized to GAPDH signal.
Total RNA was extracted using the TRI reagent (INVITROGEN) according to the manufacturer's instructions. First-strand complementary DNA was synthesized using READY-TO-GO You-Prime First-Strand Beads (Amersham Biosciences, Piscataway, N.J.).
Real-time PCR was performed with the DNA ENGINE OPTICON 2 System (MJ Research, Waltham, Mass.) according to the manufacturer's instructions. The primers for human p21 (Cip1/WAF1′) and GAPDH (GENBANK accession numbers NM_000389 and NP_002037, respectively) were designed using the Primer3 program. […] Fluorescence was measured at the end of the elongation phase at 79° C. Expression levels were calculated as a ratio between p21 and GAPDH signals. […]

[4] = target: T1, Set9 construct composed of residues …; assay: cell-based or functional assay

Molecule | intracellular concentration of methylated Lys372-p53 protein [1] | levels of intracellular p53 ([1]; monoclonal p53 antibody) | amount of methylated p53 bound to the p21 promoter [2] | number of cells positively stained for Annexin V (U2OS cells) | total levels of p53 (p53 in U2OS cells) | Lys372 methylation of p53 (p53 in U2OS cells; upon Adr treatment) | p21 expression upon DNA damage [3] | enzymatic activity, methyltransferase assays with 3H-labeled S-adenosyl-L-methionine (AdoMet) [4] [fold]
COc1cccc2c1C(=O)c1c(O)c3c(c(O)c1C2=O)C[C@@](O)(C(=O)CO)C[C@@H]3O[C@H]1C[C@H](N)[C@H](O)[C@H](C)O1 [Adr, adriamycine] | increased the intracellular concentration of methylated Lys372-p53 protein | did not increase the levels of intracellular p53 | increased as early as 1.5 hours after DNA damage | increased the number of cells positively stained for Annexin V | – | – | – | –
B1 | – | – | did not exhibit a significant increase in methylated p53 at the p21 promoter | – | decreased the total levels of p53 | decreased Lys372 methylation of p53 | impaired p21 expression upon DNA damage | –
LKSKKGQSTSRHKKLMFKTY [wild-type p53 20-mer] | – | – | – | – | – | – | – | 6
